Laboratory results from patent US20220257766A1, “SSTR-TARGETED CONJUGATES AND FORMULATIONS THEREOF” (TVA (ABC), LLC, priority 2019, published 2022).

Assays:
[1] = Buffer screening for solution stability of Conjugate 57; type: physicochemical; conditions: acetate buffer at pH range of 4.0 to 4.8, compared with citrate and phosphate buffers
Text: Conjugate 57 is a free flowing powder. Previusly studies have found the stability of Conjugate 57 is dependent on the pH of the solution.

[2] = Clinical studies of Conjugate 57 given IV: dose level, benefit and toxicity; type: in vivo, human
Experimental: (§1) In previous clincial studies, Conjugate 57 was administered via IV on an every 3 week cycle ([…]). The dose of Conjugate 57 may be 1.0 mg, 2.0 mg, 4.0 mg, 8 mg, 12 mg, 15 mg or MTD, which has been determined to be 18 mg. […] BSA (meters squared), as used herein, can be calculated as the following: the square root of patient height in centimeters times patient weight in kilograms divided by 3600. As shown in FIG. 1A and FIG. 1B, a trend was evident between dose normalized exposure (AUC0-8 and Cmax) vs BSA for Conjugate 57. […] The majority of toxicity observed was at dose levels greater than 8.8 mg/m^2. Based on these unexpected results, that starting dose of Conjuate 57 for patients was changed from 15 mg to 8.8 mg/m^2 or less than 8.8 mg/m^2. Patients received dose levels such as 8.8 mg/m^2, 8.75 mg/m^2, 8.6 mg/m^2, 8.4 mg/m^2, 8.3 mg/m^2, 7.9 mg/m^2, 7.5 mg/m^2, and 6.7 mg/m2.
The risk of over exposure of high Cmax levels in smaller pateints (<1.6 m^2) was reduced. The risk of early discontinuation due to intolerability was reduced and the duration of theray was increased.

[3] = Pharmacokinetics of Conjugate 57 in patients; type: in vivo, human
Experimental: as §1

[4] = patients, dose per body surface area
[5] = human, in vivo, intravenous, in a patient

For COc1cc2cc(c1Cl)N(C)C(=O)C[C@H](OC(=O)[C@H](C)N(C)C(=O)CCSSC[C@H](NC(=O)[C@@H]1CSSC[C@H](NC(=O)[C@H](N)Cc3ccccc3)C(=O)N[C@@H](Cc3ccc(O)cc3)C(=O)N[C@H](Cc3c[nH]c4ccccc34)C(=O)N[C@@H](CCCCN)C(=O)N[C@@H]([C@@H](C)O)C(=O)N1)C(N)=O)[C@]1(C)O[C@H]1[C@H](C)[C@@H]1C[C@@](O)(NC(=O)O1)[C@H](OC)/C=C/C=C(\C)C2 [Conjugate 57], the “stability in buffered solution” value [1] was “most stability”, the MTD ([2]; IV, every 3 week cycle, flat dose, previous clinical studies) was 18 mg and the “effect on efficacy of changing from flat doses to doses based on body surface area” value ([2]; patients) was “no negative effect on efficacy”. The “dose levels at which maximum benefit was observed” value [2, 4] was at most 8.8 mg/m^2, the “dose levels at which the majority of toxicity was observed” value [2, 4] was “greater than 8.8 mg/m^2” and the clearance [3, 5] was 318 mL/min. The half-life [3, 5] was about 1.8 h and the “exposure (dose normalized AUC0-8 and Cmax) vs body surface area” value ([3]; patients, FIG. 1A and FIG. 1B) was “correlateds with body surface area (BSA)”.
